Target: PDGFRs (PDGFRα and PDGFRβ subunit dimers) (mouse (endogenous in MEFs)) (UniProt P26618)
Test: affinity purification with mass spectrometry

UniProt P26618, sequence (P26618 25-1089, chain 1 of 2): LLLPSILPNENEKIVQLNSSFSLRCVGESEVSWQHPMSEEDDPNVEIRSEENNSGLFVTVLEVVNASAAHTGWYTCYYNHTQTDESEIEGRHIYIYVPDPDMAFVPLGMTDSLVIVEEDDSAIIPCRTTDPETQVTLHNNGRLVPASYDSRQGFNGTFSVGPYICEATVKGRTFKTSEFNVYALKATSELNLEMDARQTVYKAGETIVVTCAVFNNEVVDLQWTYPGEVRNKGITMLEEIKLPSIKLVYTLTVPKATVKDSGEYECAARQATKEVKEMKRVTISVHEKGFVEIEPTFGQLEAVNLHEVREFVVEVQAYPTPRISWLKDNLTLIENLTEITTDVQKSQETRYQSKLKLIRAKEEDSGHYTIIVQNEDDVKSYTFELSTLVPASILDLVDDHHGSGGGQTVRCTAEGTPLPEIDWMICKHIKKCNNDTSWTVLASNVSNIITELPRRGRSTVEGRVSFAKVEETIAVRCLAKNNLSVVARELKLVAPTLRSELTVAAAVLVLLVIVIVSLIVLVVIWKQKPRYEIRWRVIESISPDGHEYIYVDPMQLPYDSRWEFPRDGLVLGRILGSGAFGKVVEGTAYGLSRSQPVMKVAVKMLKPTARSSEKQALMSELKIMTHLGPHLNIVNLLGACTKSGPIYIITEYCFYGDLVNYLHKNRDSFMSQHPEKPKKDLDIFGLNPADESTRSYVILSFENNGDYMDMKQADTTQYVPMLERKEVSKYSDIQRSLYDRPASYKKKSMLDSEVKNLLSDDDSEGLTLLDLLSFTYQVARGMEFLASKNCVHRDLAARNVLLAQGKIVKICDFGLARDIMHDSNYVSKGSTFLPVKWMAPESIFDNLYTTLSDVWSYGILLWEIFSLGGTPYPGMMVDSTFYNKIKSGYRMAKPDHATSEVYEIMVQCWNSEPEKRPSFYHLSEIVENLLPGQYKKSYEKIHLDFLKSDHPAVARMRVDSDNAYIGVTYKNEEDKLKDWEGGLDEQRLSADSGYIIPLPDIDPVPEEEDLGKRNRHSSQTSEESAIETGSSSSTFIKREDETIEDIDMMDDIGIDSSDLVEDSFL
UniProt P26618, sequence (P05622 32-1098, chain 2 of 2, further chain): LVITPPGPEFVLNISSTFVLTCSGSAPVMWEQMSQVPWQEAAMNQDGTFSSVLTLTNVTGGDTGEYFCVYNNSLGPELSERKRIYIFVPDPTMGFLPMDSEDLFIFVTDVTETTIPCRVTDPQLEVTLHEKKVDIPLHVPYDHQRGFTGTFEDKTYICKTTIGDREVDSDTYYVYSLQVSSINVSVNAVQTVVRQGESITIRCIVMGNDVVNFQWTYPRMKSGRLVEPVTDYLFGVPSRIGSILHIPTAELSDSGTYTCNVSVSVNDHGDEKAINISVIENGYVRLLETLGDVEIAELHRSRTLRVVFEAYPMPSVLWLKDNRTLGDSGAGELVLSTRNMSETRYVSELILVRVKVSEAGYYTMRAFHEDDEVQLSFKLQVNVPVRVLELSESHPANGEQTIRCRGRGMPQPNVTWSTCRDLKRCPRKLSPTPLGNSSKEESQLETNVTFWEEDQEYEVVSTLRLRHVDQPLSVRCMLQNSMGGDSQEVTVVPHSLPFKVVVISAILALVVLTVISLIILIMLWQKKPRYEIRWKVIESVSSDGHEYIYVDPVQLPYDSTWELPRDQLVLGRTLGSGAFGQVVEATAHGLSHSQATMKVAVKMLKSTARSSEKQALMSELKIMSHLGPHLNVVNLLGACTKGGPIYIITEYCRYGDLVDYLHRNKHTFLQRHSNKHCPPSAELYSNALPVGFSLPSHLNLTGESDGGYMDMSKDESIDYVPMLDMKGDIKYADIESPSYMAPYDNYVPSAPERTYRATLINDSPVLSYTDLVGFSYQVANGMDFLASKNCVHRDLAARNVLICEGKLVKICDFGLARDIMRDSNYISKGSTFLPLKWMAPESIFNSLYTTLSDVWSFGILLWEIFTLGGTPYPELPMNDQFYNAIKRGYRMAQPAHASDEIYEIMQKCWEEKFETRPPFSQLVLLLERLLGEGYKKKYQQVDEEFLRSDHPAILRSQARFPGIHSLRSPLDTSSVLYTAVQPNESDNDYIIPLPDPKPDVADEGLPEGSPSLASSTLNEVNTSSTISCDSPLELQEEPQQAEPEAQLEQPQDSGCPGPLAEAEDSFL

percent of total associated with anti-PDGFR-IPs: > 80%
Substance: total p85

— paper PMC6275495
